The subject of data set [1] is HeLa Kyoto. Nature of the data set: melting temperature (median over replicates), in situ; higher = more thermally stable.
Data set [2] relates to HeLa Kyoto. In words: solubility in G1/S (NP-40 vs SDS abundance) (log2 ratio); higher = more soluble. Conditions: cell cycle stage: G1/S.
The subject of data set [3] is HeLa Kyoto. Nature of the data set: solubility change mitosis vs G1/S (difference of NP-40 vs SDS log2 ratios) (log2 ratio difference); higher = more soluble in mitosis.
Data set [4] concerns HeLa Kyoto. Nature of the data set: thermal stability score vs G1/S (z-score of summed log2 fold changes over temperatures); higher = more thermally stable than in G1/S.
The mark [5] stands for this setting: cell cycle stage: early G1 (4.5 h after nocodazole release).

Eight substances from the supplement of paper PMC5998384 can be followed below.
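For melting temperature (median over replicates), in situ in this document: HeLa Kyoto cells synchronized by double thymidine or nocodazole block, proteins quantified by TMT10plex mass spectrometry, three independent biological replicates.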
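For solubility change mitosis vs G1/S (difference of NP-40 vs SDS log2 ratios) in this document: synchronized HeLa Kyoto cells (double thymidine block for G1/S, nocodazole release for mitosis), protein amounts in NP-40 versus SDS lysates quantified by mass spectrometry, three biological replicates.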
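For solubility in G1/S (NP-40 vs SDS abundance) in this document: HeLa Kyoto cells arrested at G1/S by double thymidine block, proteins quantified by TMT10plex mass spectrometry in mild NP-40 versus SDS extracts, three biological replicates.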
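For thermal stability score vs G1/S (z-score of summed log2 fold changes over temperatures) in this document: synchronized HeLa Kyoto cells, proteins quantified by TMT10plex mass spectrometry, three biological replicates, mitosis taken 0.5 h after nocodazole release, G1/S directly after double thymidine block.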

Chain of NEK7 (chain, as listed by the source): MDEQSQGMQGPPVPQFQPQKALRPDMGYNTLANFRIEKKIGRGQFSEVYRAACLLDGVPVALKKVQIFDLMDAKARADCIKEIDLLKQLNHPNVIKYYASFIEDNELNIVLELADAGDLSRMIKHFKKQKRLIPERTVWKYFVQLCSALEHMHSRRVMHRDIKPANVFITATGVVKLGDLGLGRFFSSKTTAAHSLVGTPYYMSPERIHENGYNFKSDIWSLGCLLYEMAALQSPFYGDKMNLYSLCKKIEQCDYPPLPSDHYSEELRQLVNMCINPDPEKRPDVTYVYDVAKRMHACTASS
Chain of PDCD10 (chain, as listed by the source): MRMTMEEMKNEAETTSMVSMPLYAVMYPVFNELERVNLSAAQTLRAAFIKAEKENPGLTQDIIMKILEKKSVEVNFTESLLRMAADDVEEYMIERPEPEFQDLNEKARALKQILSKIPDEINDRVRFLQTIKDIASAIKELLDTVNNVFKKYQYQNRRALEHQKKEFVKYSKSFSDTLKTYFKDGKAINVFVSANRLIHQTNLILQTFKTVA
Chain of OXSM (chain, as listed by the source): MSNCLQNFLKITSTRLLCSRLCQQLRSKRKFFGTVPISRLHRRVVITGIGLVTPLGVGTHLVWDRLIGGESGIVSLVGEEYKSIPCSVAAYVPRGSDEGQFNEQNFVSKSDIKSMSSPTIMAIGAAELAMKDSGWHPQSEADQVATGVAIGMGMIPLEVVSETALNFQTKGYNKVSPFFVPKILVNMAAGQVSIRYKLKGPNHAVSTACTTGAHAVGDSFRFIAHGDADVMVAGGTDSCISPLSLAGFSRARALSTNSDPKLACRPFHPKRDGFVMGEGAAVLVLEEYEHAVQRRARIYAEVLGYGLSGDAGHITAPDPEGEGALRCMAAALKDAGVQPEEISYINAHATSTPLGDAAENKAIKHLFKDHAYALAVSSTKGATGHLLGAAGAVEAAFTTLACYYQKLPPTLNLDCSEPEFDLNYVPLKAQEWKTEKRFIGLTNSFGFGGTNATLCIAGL

For the substance NEK7, the melting temperature in data set [1] (cell cycle stage: G1/S) is 49.1 °C; in data set [1] (cell cycle stage: mitosis), 49.4 °C. Further, the “solubility in G1/S (log2)” value in data set [2] was 0.62. Moreover, the “solubility change mitosis (log2)” value in data set [3] was -0.165. Moreover, the thermal stability score turned out to be 1.38 in data set [4] (setting [5]) and 1.14 in data set [4] (cell cycle stage: mitosis).
Take NFIC: the results for the melting temperature in data set [1] (cell cycle stage: G1/S) and in data set [1] (cell cycle stage: mitosis) were 56.8 °C and 57.3 °C, respectively. Also, the “solubility in G1/S (log2)” value in data set [2] amounted to 0.109. For the same substance, the “solubility change mitosis (log2)” value in data set [3] is 0.0157. Further, the thermal stability score was -1.32 in data set [4] (setting [5]) and 2.11 in data set [4] (cell cycle stage: mitosis).
For the substance NIFK, the melting temperature in data set [1] (cell cycle stage: G1/S) was found to be 51.7 °C; in data set [1] (cell cycle stage: mitosis), 52.8 °C. Moreover, the “solubility in G1/S (log2)” value in data set [2] was -1.88. For the same substance, in data set [3], the “solubility change mitosis (log2)” value stood at 0.784. For the same substance, the thermal stability score in data set [4] (setting [5]) worked out at 4.37; in data set [4] (cell cycle stage: mitosis), 4.42.
For the substance NOTCH2, the melting temperature in data set [1] (cell cycle stage: G1/S) worked out at 50.1 °C; in data set [1] (cell cycle stage: mitosis), 51 °C. The “solubility in G1/S (log2)” value in data set [2] was -0.0358. Further, the “solubility change mitosis (log2)” value in data set [3] was -0.171. The thermal stability score in data set [4] (setting [5]) is -1.09; in data set [4] (cell cycle stage: mitosis) it was -2.98.
As to NUMA1, the melting temperature in data set [1] (cell cycle stage: G1/S) was determined as 47.7 °C; in data set [1] (cell cycle stage: mitosis), 49.7 °C. Also, in data set [2], the “solubility in G1/S (log2)” value is -0.199. Besides, the “solubility change mitosis (log2)” value in data set [3] was 0.493. In addition, the thermal stability score in data set [4] (setting [5]) is 5.09; in data set [4] (cell cycle stage: mitosis), 8.74.
OXSM: the results for the melting temperature in data set [1] (cell cycle stage: G1/S) and in data set [1] (cell cycle stage: mitosis) were 58.8 °C and 61.2 °C, respectively. Moreover, in data set [2], the “solubility in G1/S (log2)” value was -0.149. Moreover, the “solubility change mitosis (log2)” value in data set [3] was -0.0154. Moreover, the thermal stability score in data set [4] (setting [5]) is 0.339; in data set [4] (cell cycle stage: mitosis), -0.889.
As for PDCD10, the results for the melting temperature in data set [1] (cell cycle stage: G1/S) and in data set [1] (cell cycle stage: mitosis) were 49.2 °C and 50.7 °C, respectively. Further, the “solubility in G1/S (log2)” value in data set [2] came to 0.326. Moreover, the “solubility change mitosis (log2)” value in data set [3] is -0.0258. In addition, the thermal stability score was 1.11 in data set [4] (setting [5]) and 1.24 in data set [4] (cell cycle stage: mitosis).
Turning to PHF3, the values for the melting temperature in data set [1] (cell cycle stage: G1/S) and in data set [1] (cell cycle stage: mitosis) were 53.2 °C and 53.7 °C, respectively. In data set [2], the “solubility in G1/S (log2)” value is -0.532. Also, the “solubility change mitosis (log2)” value in data set [3] is 0.194. For the same substance, the thermal stability score stood at 0.714 in data set [4] (setting [5]) and 2.75 in data set [4] (cell cycle stage: mitosis).
